Key:
Conditions in all cases: both partners purified
[1] = target: T1, Ski2-like helicase 1 (Slh1), subunit of the RQT complex, wild type (yeast, UniProt P53327 1-1967); assay: cryo-EM structure; RQT-80S complex in conformation C1 (classical POST state); ubiquitinated CGN12-stalled disomes incubated 5 min at 25 °C with purified wild-type RQT and 1 mM ATP (post-splitting sample), vitrified; 80S refined to 2.4 Å, RQT locally refined to 3.5 Å
T1 construct: Slh1 (Rqt2), ATP-dependent Ski2-like RNA helicase of yeast RQT, 1967 amino acids; NTC residues 217-1122 and CTC residues 1123-1967 modelled, N-terminal domain 1-217 not visible; Co-purified with Cue3 and Rqt4 as the trimeric RQT complex; Eluted by TEV cleavage of the FTP tag; also called Rqt2; Slh1-FTP; source: yeast strain overexpressing RQT components (Slh1-FTP, Cue3, Rqt4), purified …

[2] = target: T1, Ski2-like helicase 1 (Slh1), subunit of …; assay: cryo-EM structure; pre-splitting samples: ubiquitinated CGN6-stalled disomes with wild-type RQT, or ubiquitinated CGN12-stalled disomes with K316R-RQT (RQT*), 1 mM ATP, 5 min at 25 °C; RQT seen on the lead ribosome of intact disomes
[3] = target: T2, Slh1-K316R, ATPase-deficient Walker A mutant of the N-terminal cassette, subunit of K316R-RQT (yeast, UniProt P53327 1-1967, K316R); assay: as above
T2 construct: Slh1 (Rqt2) of yeast RQT, 1967 amino acids, with the ATPase-deficient mutation K316R; Probably made and tagged like the wild-type Slh1-FTP; also called K316R-Slh1; source: purified RQT complex (K316R-Slh1 mutant)
T2 sequence (P53327 whole entry K316R): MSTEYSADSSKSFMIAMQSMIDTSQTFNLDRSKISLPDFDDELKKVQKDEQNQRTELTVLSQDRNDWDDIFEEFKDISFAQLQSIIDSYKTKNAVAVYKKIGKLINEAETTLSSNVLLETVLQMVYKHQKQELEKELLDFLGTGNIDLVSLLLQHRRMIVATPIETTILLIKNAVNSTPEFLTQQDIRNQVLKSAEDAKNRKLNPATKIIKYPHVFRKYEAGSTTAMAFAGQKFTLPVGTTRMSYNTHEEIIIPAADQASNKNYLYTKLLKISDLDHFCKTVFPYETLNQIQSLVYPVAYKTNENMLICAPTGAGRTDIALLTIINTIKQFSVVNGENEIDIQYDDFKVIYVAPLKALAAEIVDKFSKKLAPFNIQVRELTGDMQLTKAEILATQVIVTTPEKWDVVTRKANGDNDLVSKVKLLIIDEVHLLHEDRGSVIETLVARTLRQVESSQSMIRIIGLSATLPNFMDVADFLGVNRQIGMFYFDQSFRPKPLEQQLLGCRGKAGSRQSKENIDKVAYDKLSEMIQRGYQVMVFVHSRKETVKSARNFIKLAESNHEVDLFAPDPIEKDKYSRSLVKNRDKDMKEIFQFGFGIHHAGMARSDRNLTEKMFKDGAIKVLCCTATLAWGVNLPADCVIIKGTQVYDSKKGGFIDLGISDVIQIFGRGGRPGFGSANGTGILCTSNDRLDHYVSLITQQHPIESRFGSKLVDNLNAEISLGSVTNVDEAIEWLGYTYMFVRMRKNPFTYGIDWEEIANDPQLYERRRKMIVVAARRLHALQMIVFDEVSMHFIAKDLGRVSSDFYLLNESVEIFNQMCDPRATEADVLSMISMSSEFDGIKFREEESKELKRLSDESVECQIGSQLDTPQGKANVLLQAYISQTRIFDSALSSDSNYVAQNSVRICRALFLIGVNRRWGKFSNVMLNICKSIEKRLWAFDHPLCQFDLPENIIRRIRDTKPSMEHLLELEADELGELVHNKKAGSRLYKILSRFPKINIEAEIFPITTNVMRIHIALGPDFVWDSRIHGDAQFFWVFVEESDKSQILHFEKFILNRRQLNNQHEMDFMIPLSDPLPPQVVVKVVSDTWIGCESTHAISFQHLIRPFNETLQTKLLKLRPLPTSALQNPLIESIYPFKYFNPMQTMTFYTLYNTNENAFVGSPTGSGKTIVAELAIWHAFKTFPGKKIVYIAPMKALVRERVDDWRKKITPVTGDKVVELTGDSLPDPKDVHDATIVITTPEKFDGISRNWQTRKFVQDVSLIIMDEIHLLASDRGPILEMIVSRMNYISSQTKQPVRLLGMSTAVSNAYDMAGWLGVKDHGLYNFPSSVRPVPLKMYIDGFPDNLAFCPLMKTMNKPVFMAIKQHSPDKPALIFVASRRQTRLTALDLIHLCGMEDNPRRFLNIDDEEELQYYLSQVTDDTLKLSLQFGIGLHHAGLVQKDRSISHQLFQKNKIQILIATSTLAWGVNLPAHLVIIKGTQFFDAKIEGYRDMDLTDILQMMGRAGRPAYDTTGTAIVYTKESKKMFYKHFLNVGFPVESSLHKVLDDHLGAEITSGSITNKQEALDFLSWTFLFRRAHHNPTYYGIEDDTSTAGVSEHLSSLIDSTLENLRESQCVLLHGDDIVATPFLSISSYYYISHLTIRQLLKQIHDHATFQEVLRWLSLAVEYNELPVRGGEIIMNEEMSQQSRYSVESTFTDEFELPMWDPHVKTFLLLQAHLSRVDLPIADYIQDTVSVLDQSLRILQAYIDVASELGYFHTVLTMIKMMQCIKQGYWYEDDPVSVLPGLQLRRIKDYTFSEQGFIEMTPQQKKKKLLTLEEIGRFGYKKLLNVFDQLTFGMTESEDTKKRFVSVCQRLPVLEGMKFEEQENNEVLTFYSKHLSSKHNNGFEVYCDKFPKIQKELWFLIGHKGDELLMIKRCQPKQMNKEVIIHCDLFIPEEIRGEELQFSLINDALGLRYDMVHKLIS

T1 sequence (P53327 whole entry, the tested form may be a part, one chain of several): as the sequence (P53327 whole entry K316R) above, with R316K counted along it

Row | binding result [1] | binding result [2] | binding result [3] | Binder
1 | – | binds | binds | Rqt4, zinc-finger containing subunit of the RQT complex (natural protein, yeast, Rqt4 of yeast RQT; two parts modelled (residues 171-219 and 323-381); PWI-like domain 1-74, helices flanking the zinc finger and the C-terminus not visible) MTRKQAIDYAIKQVPQILPLEESDVKALCEQVLSTSSDDPEQIASKFLEFLGHEDLSFEFVMKFNELLNQNDKKEEKKTKNVHLEHTAPTSWKNESKQPTNNYINKKGDEKPKKLKDEKKSSTTRPTVQPSNQSTQSNPIKEKKEHRSKGKLQSLQEIDEAIKMLELRDSGSSKNCNCQGTRHPVFDIAPNCLHCGKVVCVIEGLNKGKCGHCHEQLISDNERTQMVEILNQEKNELNGSSSSLSNASNGANVPKKKTKTYKITSGMGKNLFAEQDKLFDFIERKRERERKRNEVLKLQEEKEESEAKERQASEHDHKAEENPELLAAQERLDRLLYFQDTSAERTKIIDNASDFDMNQEVGLWGSARERALALKKQQRNLRKWEKVEKERNGRREKYVVSMNIGSNGKVTMTEVPKDTENVIAGSDDDISDISDEEDISDLKHIHALKSEINTTKSLENLHLQSKAWDYERDKKQFDRPTYVKKNSDTAQQNRKTEEKAHDMQAYDLKSRVQVDQNADASVEQNILAVL
2 | binds | – | – | RACK1 (Asc1) of the 40S head (natural protein, UniProt P38011 1-319, looked up, RACK1 (Asc1), protein at the back side of the 40S head of the yeast ribosome; Stood in the assay as part of the whole 80S ribosome; source: endogenous, in ribosomes of a yeast cell-free translation extract; ribosome-nascent chain complexes purified (His-tag Dynabeads, sucrose gradient)) MASNEVLVLRGTLEGHNGWVTSLATSAGQPNLLLSASRDKTLISWKLTGDDQKFGVPVRSFKGHSHIVQDCTLTADGAYALSASWDKTLRLWDVATGETYQRFVGHKSDVMSVDIDKKASMIISGSRDKTIKVWTIKGQCLATLLGHNDWVSQVRVVPNEKADDDSVTIISAGNDKMVKAWNLNQFQIEADFIGHNSNINTLTASPDGTLIASAGKDGEIMLWNLAAKKAMYTLSAQDEVFSLAFSPNRYWLAAATATGIKVFSLDPQYLVDDLRPEFAGYSKAAEPHAVSLAWSADGQTLFAGYTDNVIRVWQVMTAN
3 | binds | – | – | ribosomal protein uS5 of the 40S subunit (natural protein, UniProt P25443 1-254, looked up, uS5 (Rps2), 40S ribosomal protein of yeast; its usually flexible N-terminus is seen as extra density; Stood in the assay as part of the whole 80S ribosome; source: endogenous, in ribosomes of a yeast cell-free translation extract; ribosome-nascent chain complexes purified (His-tag Dynabeads, sucrose gradient)) MSAPEAQQQKRGGFGGRNRGRPNRRGPRNTEEKGWVPVTKLGRLVKAGKITTIEEIFLHSLPVKEFQIIDTLLPGLQDEVMNIKPVQKQTRAGQRTRFKAVVVVGDSNGHVGLGIKTAKEVAGAIRAGIIIAKLSVIPIRRGYWGTNLGQPHSLATKTTGKCGSVTVRLIPAPRGSGIVASPAVKKLLQLAGVEDVYTQSNGKTRTLENTLKAAFVAIGNTYGFLTPNLWAEQPLPVSPLDIYSDEASAQKKRF

The remaining lines, values behind:

Row | Binder | binding result [1] | binding result [2] | binding result [3]
4 | ribosomal protein uS3 of the 40S subunit (natural protein, UniProt P05750 1-240, looked up, uS3 (Rps3), 40S ribosomal protein of yeast, part of the stalled ribosome; Stood in the assay as part of the whole 80S ribosome or disome, which had been ubiquitinated in vitro with Hel2; source: endogenous, in ribosomes of a yeast cell-free translation extract; ribosome-nascent chain complexes purified (His-tag Dynabeads, sucrose gradient)) MVALISKKRKLVADGVFYAELNEFFTRELAEEGYSGVEVRVTPTKTEVIIRATRTQDVLGENGRRINELTLLVQKRFKYAPGTIVLYAERVQDRGLSAVAQAESMKFKLLNGLAIRRAAYGVVRYVMESGAKGCEVVVSGKLRAARAKAMKFADGFLIHSGQPVNDFIDTATRHVLMRQGVLGIKVKIMRDPAKSRTGPKALPDAVTIIEPKEEEPILAPSVKDYRPAEETEAQAEPVEA | binds | – | –
5 | Cue3 (Rqt3), ubiquitin-binding CUE domain containing subunit of the RQT complex (natural protein, yeast, UniProt P53137 1-624, looked up, Cue3 (Rqt3) of yeast RQT; only the N-terminal helical domain 1-297 modelled; CUE domain 298-360, four-helix bundle 468-541 and C-terminus 542-624 not visible) MLSRYNRVIEINGGNADISLPIVKFPPFKLRAQLIEKDPVVWLHLIETYVTYFEYLMQGANVELLDESTLDHLRLFLRTYLHEIADEEGKLLSLGINHDVSEQLYLLKGWIFSLIKKCGLLHLQIFGDSLWNLIKVYVRRNPDSIRGLIDGSLKPRINTQRVQLDKSYQVQQHLKQLIESGKFKRIDLRCVEDLLSAKSMQPNKFAENFFTANWIEILEALWAKGQGRGHKEARELIIISLFSVSADRLLKITKELGISNFETLALYPLLGTMLINEGVHKRLPDLKSKLLFLNLGGLSMDEGDHMSYPTSSGTEVNEEQLSALMELFPQFSKYQLSQTLLAYDNNIELVTNKIFEDPTIIEAFSREPAEEEVEPVSDGDNASFTEELSILDRGDSSKNKELDKKIISEGVPDELRNKTLTRALKLLYEADEDERDDTYDEADVNRSDPSKRIGLQEDEESYDTKDDSNEVRQDHNYHIVEAYLWNLLKEDPKLFERSKRGTKVRKTMKEMTSWSDEKIEGWCRMLERSPTRARLLEKKFMFKGNSKTGKTSYVHNRDSQNDGNVVKEQAKQKKSENIKKHEPQSTEQKKRQHAKNEKRKGARANHNRKKGHDKKLARAGNNAI | – | binds | binds
